One substance from patent publication US20130108613A1 can be followed below.

In this assay the target is monomeric synthetic human Aβ1-42 peptide (human). The assay is described as follows: cell-based or functional assay.

Take “recombinant NIa (nuclear inclusion a) protease of Turnip mosaic virus (TuMV), purified from E. coli (from UniProt P89509 2117-2359) (enzyme)”: the reduction of monomeric Aβ level, densitometry of Western blot (6E10), 3 hrs at 25 °C, NIa pre-incubated with the cysteine protease inhibitor NEM stood at 33%.
